Patent US20110052591A1

Molecular target: TSH receptor on mouse alveolar macrophage AM cells (AMJ2-C8) (mouse) (UniProt P47750)
Assay: cell-based or functional assay

Sequence of UniProt P47750 (P47750 22-764): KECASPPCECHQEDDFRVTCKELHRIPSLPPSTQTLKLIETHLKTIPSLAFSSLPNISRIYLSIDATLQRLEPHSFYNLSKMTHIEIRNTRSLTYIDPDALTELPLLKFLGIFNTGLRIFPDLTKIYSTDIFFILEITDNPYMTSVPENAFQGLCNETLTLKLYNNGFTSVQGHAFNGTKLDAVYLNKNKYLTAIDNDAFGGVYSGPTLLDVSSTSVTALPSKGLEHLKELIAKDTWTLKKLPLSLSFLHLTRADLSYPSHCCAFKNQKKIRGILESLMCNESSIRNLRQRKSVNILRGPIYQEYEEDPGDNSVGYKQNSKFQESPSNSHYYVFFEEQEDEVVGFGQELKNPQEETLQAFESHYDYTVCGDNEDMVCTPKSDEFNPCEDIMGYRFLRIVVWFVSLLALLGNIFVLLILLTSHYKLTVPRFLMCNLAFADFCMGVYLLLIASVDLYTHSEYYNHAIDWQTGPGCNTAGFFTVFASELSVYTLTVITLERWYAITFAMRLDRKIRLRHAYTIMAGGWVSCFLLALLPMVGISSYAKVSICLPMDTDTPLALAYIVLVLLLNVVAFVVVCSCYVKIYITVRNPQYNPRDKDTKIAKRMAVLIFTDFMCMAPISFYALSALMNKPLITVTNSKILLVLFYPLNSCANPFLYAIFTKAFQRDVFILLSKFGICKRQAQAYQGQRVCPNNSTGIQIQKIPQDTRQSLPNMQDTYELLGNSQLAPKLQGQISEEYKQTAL

| cAMP response of AM cells; concentration of peak activity [nM] | Substance |
| --- | --- |
| 0.1 | recombinant mouse native TSHβ (from UniProt P12656 21-138) (ligand) |
| 1000 | recombinant mouse novel TSHβ splice variant (from UniProt P12656 55-138) (ligand) |
